Laboratory results taken from patent US20120219547A1 (LIVZON MABPHARM, published 2012).

Experiments:
[1] = target: T1, recombinant human tumor necrosis factor-α (human, UniProt P01375 77-233); assay: cell-based or functional assay
[2] = target: T1, recombinant human tumor necrosis …; assay: competition ELISA, rhTNF coated on plate, competitor HRP-labeled humira; given in µg/mL
Method: The anti-hTNFα human antibody humira marked with horseradish peroxidase (HRP) was used as a reagent. Elisa plates were coated with rhTNF (50 μl of […]), and left overnight at room temperature. The coating solution was discarded, and each well was blocked with 1% skim milk in phosphate buffered saline (PBS) for about 0.5 hours, and washed with PBS containing 0.05% Tween 20. And then a mixture of 50 μl of growth medium and 50 μl of HRP labeled humira was added to each well. Unlabeled humira and antibody-free medium were used as positive and negative controls. […] The wells in which the binding of HRP-labeled humira and rhTNFα was inhibited Kong were amplified and subcloned, followed by analysis of several mouse monoclonal antibodies which show the inhibition effects, and finally hybridoma cells were screened out. The hybridoma cells were intermediate cultured, and the supernatant was taken for purification, and the mouse monoclonal antibody TM2-11-12 and TM2-6-3. The purified mouse monoclonal antibodies TM2-11-12 and TM2-6-3 were tested in competition binding assays. Even at the concentration up to 1 μg/mL, the mouse antibody TM2-6-3 only competed out about 50% of the binding of humira to hTNFα.

[3] = target: monkey TNFα (monkey); assay: ELISA, TNFα coated on plate (5 ng/well), HRP-labeled anti-human Fc detection, four-parameter fit
Method: (§1) On a plate, respectively coat recombinant human TNFα 5 ng/well, mouse TNFα 25 ng/well, and monkey TNFα 5 ng/well at room temperature, and blocked for 1 h, washed. And then 1.8-fold gradient dilutions of AT132 was added with an initial concentration of 250 ng/mL, and incubated at 25° C. for 2 h, washed, HRP-labeled anti-human Fc antibody added, and incubated at room temperature for 1 h, washed, and the substrate solution added as 100 μl/well, placed in dark at 37° C. for 30 min. In accordance with the order of the added color reagents, 0.2 M H₂SO₄, 50 μl/well was added to terminate the reaction. Within about 5 minutes after termination, OD values were test at 450 nm/630 nm on a microplate reader, and median effective concentrations were obtained by four-parameter fitting. Compare the binding activities of AT132 to different sources of TNFα.

[4] = target: T2, mouse TNFα (mouse, UniProt P06804 80-235); assay: ELISA, TNFα coated on plate (mouse 25 ng/well, human 5 ng/well), HRP-labeled anti-human Fc detection; calculated from coating and sample concentrations
T2 sequence (looked up): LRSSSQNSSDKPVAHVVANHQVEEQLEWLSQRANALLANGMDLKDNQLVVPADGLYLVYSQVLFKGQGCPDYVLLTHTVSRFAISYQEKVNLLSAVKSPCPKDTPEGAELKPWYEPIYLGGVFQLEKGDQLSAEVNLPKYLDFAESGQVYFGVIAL
Method: as §1

[5] = target: T2, mouse TNFα; assay: ELISA, TNFα coated on plate, HRP-labeled anti-human Fc detection
Method: as §1

[6] = target: T1, recombinant human tumor necrosis …; assay: SPR, Biacore X100; antibody captured by goat anti-human IgG Fc on CM5 chip, TNFα as analyte
Method: AT132 affinity was determined by Biacore X100, and analyzed with Biacore X100 kinetics/affinity analysis software. Using indirect capture method, goat anti-human IgG Fc polyclonal antibody was coupled to the surface of CM5 chip as a capture molecule by using Amine Coupling Kit. By calculation, AT132 and Humira as control were respectively diluted to a a certain concentration to be lately used as ligand, and TNFα as the analyte. Analytes were diluted to 5 concentrations, and each concentration as a cycle. First, using HBS-EP buffer to run for three cycles, designing an analyte concentration of 0 concentration to run for two cycles, and finally, designing a repeat analyte concentration to run for a cycle. The whole process ran 11 cycles, and each cycle can draw a curve. The dynamics/affinity data of the measured antibody and humira were analyzed by Biacore X100 kinetics/affinity analysis software.

T1 sequence (P01375 77-233 limits assumed): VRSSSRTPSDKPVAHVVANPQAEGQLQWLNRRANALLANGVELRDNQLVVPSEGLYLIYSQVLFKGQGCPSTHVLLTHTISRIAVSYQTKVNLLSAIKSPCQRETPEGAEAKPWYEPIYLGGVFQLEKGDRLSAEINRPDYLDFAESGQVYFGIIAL

B1: AT135 humanized anti-TNFα antibody (antibody, human IgG1, V domains shown)
VH: QVQLVQSGPELKKPGASVKISCKASGYTFTHYGMHWVKQTPGRGLKWVGWINTYTGEPTYDADFQGRFTFSLDTSVSTAFLQINSLKDEDLAVYFCARYDFDGFDYWGQGTTLTVSS
VL: ENVLTQSPPILSASPGERVTMTCRASSSITFNYLHWYQQKSGDSPKVWIYSTSNLVSGVPSRFSGSGSGTSYSLTISSLEAEDAATYYCQQYSDYPYTFGGGTKLEIK
[1]
  EC50(ng/mL), neutralization of TNFα killing effect on L929 cell: 50 ng/mL

B2: AT151 humanized anti-TNFα antibody (antibody, human IgG1, V domains shown)
VH: QVQLVQSGPELKKPGASVKISCKASGYTFTHYGMHWVKQTPGRGLKWVGWINTYTGEPTYDADFQGRFTFSLETSVSTAFLQINSLKDEDLATYFCARYDFDGFDYWGQGTTLTVSS
VL: ENVLTQSPPILSASPGEEVTMTCRASSSITFNYLHWYQQKSGDSPKVWIYSTSNLVSGVPARFSGSGSGTSYSLTISSLEAEDFATYYCQQYSDYPYTFGGGTKLEIK
[1]
  EC50(ng/mL), neutralization of TNFα killing effect on L929 cell: 42.1 ng/mL

B3: mouse monoclonal antibody TM2-11-12 (antibody, mouse IgG1, V domains shown)
VH: QVQLVQSGPELKKPGETVKISCKASGYTFTHYGMHWVKQTPGRSLKWVGWINTYTGEPTYDADFQGRFTFSLETSTSTAFLQINTLKDEDLATYFCARYDFDGFDYWGQGTTLTVSS
VL: ENVLTQSPPIMSASPGEEVTMTCRASSSITFNYLHWYQQKSGDSPKVWIYSTSNLVSGVPARFSGSGSGTSYSLTISSVEAEDAATYYCQQYSDYPYTFGGGTKLEIK
notes: Purified from hybridoma supernatant; The cloning primers are antisense to the mouse IgG1 heavy chain and mouse kappa light chain constant regions; also called anti-hTNFα mouse antibody TM2-11-12
[2]
  IC50: ~0.05 µg/mL

B4: AT164 humanized anti-TNFα antibody (antibody, human IgG1, V domains shown)
VH: QVQLVQSGPELKKPGASVKISCKASGYTFTHYGMHWVKQTPGRGLKWVGWINTYTGEPTYDADFQGRFTFSLDTSVSTAFLQINSLKDEDLAVYFCARYDFDGFDYWGQGTTLTVSS
VL: ENVLTQSPPIMSASPGERVTMTCRASSSITFNYLHWYQQKSGDSPKVLIYSTSNLVSGVPSRFSGSGSGTSYSLTISSVEAEDAATYYCQQYSDYPYTFGGGTKLEIK
[1]
  EC50(ng/mL), neutralization of TNFα killing effect on L929 cell: 45.5 ng/mL

B5: AT143 humanized anti-TNFα antibody (antibody, human IgG1, V domains shown)
VH: QVQLVQSGPELKKPGESVKISCKASGYTFTHYGMHWVKQTPGRGLKWVGWINTYTGEPTYDADFQGRFTFSLETSTSTAYLQINSLKDEDLATYFCARYDFDGFDYWGQGTTLTVSS
VL: ENVLTQSPPIMSASPGERVTMTCRASSSITFNYLHWYQQKSGDSPKVLIYSTSNLVSGVPSRFSGSGSGTSYSLTISSVEAEDAATYYCQQYSDYPYTFGGGTKLEIK
[1]
  EC50(ng/mL), neutralization of TNFα killing effect on L929 cell: 39.8 ng/mL

B6: AT132 humanized anti-TNFα monoclonal antibody (antibody, human IgG1, V domains shown)
VH: QVQLVQSGPELKKPGASVKISCKASGYTFTHYGMHWVKQTPGRGLKWVGWINTYTGEPTYDADFQGRFTFSLETSVSTAFLQINSLKDEDLATYFCARYDFDGFDYWGQGTTLTVSS
VL: ENVLTQSPPILSASPGERVTMTCRASSSITFNYLHWYQQKSGDSPKVWIYSTSNLVSGVPSRFSGSGSGTSYSLTISSLEAEDAATYYCQQYSDYPYTFGGGTKLEIK
notes: also called E001VH/F001VL
[3]
  binding activity relative to human TNFα: ~50%
[4]
  fold lower binding activity than to human TNFα: 1000 times lower
[5]
  binding result: no binding
[1]
  EC50(ng/mL), neutralization of TNFα killing effect on L929 cell: 20.4 ng/mL
[6]
  Ka: 8.4e+10 M⁻¹
  Kd: 0.0119 nM
